Assay results as given in patent publication US12514920B1, “Respiratory syncytial virus mRNA vaccine, and preparation method therefor and use thereof” (Hangzhou Tianlong Pharmaceutical Co., Ltd., priority 2024, dated 2026).

B1: YK-RSV-009 (protein)
chain: QNITEEFYCSTCSAVSKGYLGALRTGWYTSVILIELSNIKENKCNGTDAKVKLIKQELDKYKNAVTDLQLLMQSTPATGSGSAIASGVAVSKVLHLEGEVNKIKSALLSTNKAVVSLSNGVSVLTFKVLDLKNYIDKQLLPIVNKQSCSIPNIETVIEFQQKNNRLLEITREFSVNAGVTTPVSTYMLTNSELLSLINDMPITNDQKKLMSNNVQIVRQQSYSIMSIIKEEVLAYVVQLPLYGVIDTPCWKLHTSPLCTTNTKEGSNICLTRTDRGWYCDNAGSVSFFPQAETCKVQSNRVFCDTMNSRTLPSEVNLCNVDIFNPKYDCKIMTSKTDVSSSVITSLGAIVSCYGKTKCTASNKNRGIIKTFSNGCDYVSNKGVDTVSVGNTLYYVNKQEGQSLYVKCEPIINFYDPLVFPSSEFDASISQVNEKINQSLAFIRKSDELLHNVNAGKSTTNIMITTIIIVIIVILLSLIAVGLLLY
B2: YK-RSV-043 (protein)
chain: QNITEEFYQSTCSAVSKGYLGALRTGWYTSVITIELSNIKENKCNGTDAKVKLIKQELDKYKNAVTDLQLLMQSCPATGSGSAIACGVAVSKVLHLEGEVNKIKSALLSTNKAVVSLSNGVSVLTFKVLDLKNYIDKQLLPILNKQSCSIPNIETVIEFQQKNNRLLEITREFSVNAGVTTPVSTYMLTNSELLSLINDMPITNDQKKLMSNNVQIVRQQSYSIMSIIKEEVLAYVVQLPLYGVIDTPCWKLHTSPLCTTNTKEGSNICLTRTDRGWYCDNAGSVSFFPQAETCKVQSNRVFCDTMNSRTLPSEVNLCNVDIFNPKYDCKIMTSKTDVSSSVITSLGAIVSCYGKTKCTASNKNRGIIKTFSNGCDYVSNKGVDTVSVGNTLYYVNKQEGQSLYVKGEPIINFYDPLVFPSDEFDASISQVNEKINQSLAFIRKSDELLHNVNAGKSTTNIMITTIIIVIIVILLSLIAVGLLLY
B3: YK-RSV-010 (protein)
chain: QNITEEFYQSTCSAVSKGYLGALRTGWYTCVILIELSNIKENKCNGTDAKVKLIKQELDKYKNAVTDLQLLMQSTPATGSGSAIASGVAVSKVLHLEGEVNKIKSALLSTNKAVVSLSNGVSVCTFKVLDLKNYIDKQLLPIVNKQSCSIPNIETVIEFQQKNNRLLEITREFSVNAGVTTPVSTYMLTNSELLSLINDMPITNDQKKLMSNNVQIVRQQSYSIMSIIKEEVLAYVVQLPLYGVIDTPCWKLHTSPLCTTNTKEGSNICLTRTDRGWYCDNAGSVSFFPQAETCKVQSNRVFCDTMNSRTLPSEVNLCNVDIFNPKYDCKIMTSKTDVSSSVITSLGAIVSCYGKTKCTASNKNRGIIKTFSNGCDYVSNKGVDTVSVGNTLYYVNKQEGQSLYVKGEPIINFYDPLVFPSSEFDASISQVNEKINQSLAFIRKSDELLHNVNAGKSTTNIMITTIIIVIIVILLSLIAVGLLLY
B4: YK-RSV-048 (protein)
chain: QNITEEFYQSTCSAVSKGYLGALRTGWYTSVITIELSNIKENKCNGTDAKVKLIKQELDKYKNAVTDLQLLMQSTPATGSGSFLGFLCGVGSAIASGVAVSKVLHLEGEVNKIKSALLSTNKAVVSLSNGVSVLTFKVLDLKNYIDKQLLPILNKQSCSIPNIETVIEFQQKNNRLLEITREFSVNAGVTTPVSTYMLTNSELLSLINDMPITNDQKKLMSNNVQIVRQQSYSIMSIIKEEVLAYVVQLPLYGVIDTPCWKLHTSPLCTTNTKEGSNICLTRTDRGWYCDNAGSVSFFPQAETCKVQSNRVFCDTMCSRTLPSEVNLCNVDIFNPKYDCKIMTSKTDVSSSVITSLGAIVSCYGKTKCTASNKNRGIIKTFSNGCDYVSNKGVDTVSVGNTLYYVNKQEGQSLYVKGEPIINFYDPLVFPSDEFDASISQVNEKINQSLAFIRKSDELLHNVNAGKSTTNIMITTIIIVIIVILLSLIAVGLLLY

Key:
RSV F antibody (4B9) = assay: ELISA binding of RSV F antigen mutants, epitope III; conditions: for Binding amount to antibody/binding amount of PC-RSV-064 to antibody, Epitope III: antibody 4B9, relative to PC-RSV-064
Procedure: (§1) To investigate the binding of the RSV F antigen mutants to antibodies recognizing different epitopes, the binding amount was determined by an ELISA method in this example.
(§2) • 293T cells (purchased from ATCC cell bank); • Primary antibody: RSV pre-F antibody (3C12), epitope ([…] (Novoprotein, Cat. No.: DA101); • RSV pre-F antibody (7H11), epitope Quaternary (Novoprotein, Cat. No.: DA109); • RSV F antibody (11A9), epitope II (Novoprotein, Cat. No.: DA091); • RSV F antibody (4B9), epitope III (Novoprotein, Cat. No.: DA110); • RSV pre-F antibody (7E11), epitope V (Cat. No.: DA119); • Standard: RSV-pre-F trimer protein (Novoprotein, Cat. No.: DRA230); • Secondary antibody: peroxidase AffiniPure goat anti-human IgG (H+L) (Yeasen, Cat. No.: N/A); • Experimental group: mRNA vaccines after screening in Example 5;
(§3) Cell culture and transfection, and protein sample preparation: the experimental procedures were the same as in Example 3.
(§4) Detection of antigen expression by ELISA: the experimental procedures were the same as in Example 5.
(§5) In the present application, the binding of different mutant antigens to antibodies recognizing different epitopes was detected by ELISA, and the strength of the binding of the antigens to the antibodies was measured by the binding amount. (1) The RSV pre-F antibody (3C12) recognizing the epitope Φ binds only to the F protein in the pre-fusion conformation; (2) the RSV pre-F antibody (7H11) recognizes the epitope Quaternary (spanning both epitopes IV and V) and specifically binds to the F protein in the pre-fusion conformation; (3) the RSV F antibody (11A9) recognizing the epitope II can recognize both the pre-fusion and post-fusion conformations of the F protein; (4) the RSV F antibody […] recognizing the epitope III preferentially recognizes the pre-fusion conformation and has relatively weak binding activity for the post-fusion conformation; (5) the RSV pre-F antibody (7E11) recognizing the epitope V binds only to the F protein in the pre-fusion conformation.

[1] = tested on: RSV pre-F antibody (3C12); assay type: physicochemical; conditions: for stability under the stress tests (in words): all stress tests, binding to 3C12, ELISA; for Stress resistance parameter, Osmotic pressure (mM) 3000: high osmotic pressure 3000 mM; for Stress resistance parameter, Osmotic pressure (mM) 3000 / Stress resistance parameter, Osmotic pressure (mM) 10: room temperature; for Stress resistance parameter, Osmotic pressure (mM) 3000 / Stress resistance parameter, Osmotic pressure (mM) 10 / Stress resistance parameter, pH 3.5 / Stress resistance parameter, pH 10: 60 min; for Stress resistance parameter, Osmotic pressure (mM) 3000 / Stress resistance parameter, Temperature (° C.) 50 / Stress resistance parameter, Osmotic pressure (mM) 10 / Stress resistance parameter, pH 3.5 / Stress resistance parameter, pH 10 / Stress resistance parameter, Temperature (° C.) 4: ELISA binding to 3C12; for Stress resistance parameter, Temperature (° C.) 50: incubation at 50° C. for 60 min; for Stress resistance parameter, Osmotic pressure (mM) 10: low osmotic pressure 10 mM; for Stress resistance parameter, pH 3.5: pH 3.5, room temperature; for Stress resistance parameter, pH 10: pH 10, room temperature; for Stress resistance parameter, Temperature (° C.) 4: storage at 4° C. for one week
Summary of the method: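 RSV F mRNA-vaccine mutants stress-treated: 4° C. for one week, 50° C. for 60 min, low or high osmotic pressure at room temperature for 60 min, acid or base at room temperature for 60 min. Binding to 3C12 (epitope Φ) then measured by ELISA against pre-F trimer standard, HRP anti-human IgG, OD 450/630 nm.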

[2] = tested on: RSV pre-F antibody (7H11); assay: ELISA binding of RSV F antigen mutants, epitope Quaternary; conditions: for Binding amount to antibody/binding amount of PC-RSV-064 to antibody, Epitope Quaternary: antibody 7H11, relative to PC-RSV-064
Procedure: as §1, §2, §3, §4, §5

RSV F antibody (11A9) = assay: ELISA binding of RSV F antigen mutants, epitope II; conditions: for Binding amount to antibody/binding amount of PC-RSV-064 to antibody, Epitope II: antibody 11A9, relative to PC-RSV-064
Procedure: as §1, §2, §3, §4, §5

[3] = tested on: RSV pre-F antibody (3C12); assay: ELISA binding of RSV F antigen mutants, epitope Φ; conditions: for Binding amount to antibody/binding amount of PC-RSV-064 to antibody, Epitope Φ: antibody 3C12, relative to PC-RSV-064
Procedure: as §1, §2, §3, §4, §5

Row | Molecule | ELISA binding amount, Epitope III, RSV F antibody (4B9) (RSV F antibody (4B9)) [ng/mL] | Binding amount to antibody/binding amount of PC-RSV-064 to antibody, Epitope III (RSV F antibody (4B9)) | stability under the stress tests (in words) [1] | Stress resistance parameter, Osmotic pressure (mM) 3000 [1] | Stress resistance parameter, Temperature (° C.) 50 [1] | Stress resistance parameter, Osmotic pressure (mM) 10 [1] | Stress resistance parameter, pH 3.5 [1] | Stress resistance parameter, pH 10 [1] | Stress resistance parameter, Temperature (° C.) 4 [1] | ELISA binding amount, Epitope Quaternary, RSV pre-F antibody (7H11) [2] [ng/mL] | Binding amount to antibody/binding amount of PC-RSV-064 to antibody, Epitope Quaternary [2] | ELISA binding amount, Epitope II, RSV F antibody (11A9) (RSV F antibody (11A9)) [ng/mL] | Binding amount to antibody/binding amount of PC-RSV-064 to antibody, Epitope II (RSV F antibody (11A9)) | ELISA binding amount, Epitope Φ, RSV pre-F antibody (3C12) [3] [ng/mL] | Binding amount to antibody/binding amount of PC-RSV-064 to antibody, Epitope Φ [3] | binding of epitope Φ, epitope Quaternary and epitope V to the corresponding antibodies (in words) ([3]; ELISA, antibodies 3C12, 7H11, 7E11)
1 | B1 | 358 | 0.12 | superior stability | 0.69 ± 0.15 | 0.84 ± 0.04 | 0.78 ± 0.15 | 0.60 ± 0.14 | 0.91 ± 0.04 | 0.71 ± 0.11 | 29 | 0.01 | 203 | 0.10 | 521 | 0.19 | 
2 | B2 | 6529 | 2.28 | superior stability | 0.72 ± 0.09 | 0.66 ± 0.06 | 0.84 ± 0.18 | 0.90 ± 0.13 | 0.75 ± 0.28 | 0.70 ± 0.13 | 922 | 0.26 | 4610 | 2.20 | 9445 | 3.41 | 
3 | B3 | 534 | 0.19 | superior stability | 0.84 ± 0.11 | 1.04 ± 0.09 | 0.97 ± 0.07 | 0.82 ± 0.05 | 0.93 ± 0.05 | 0.86 ± 0.08 | 39 | 0.01 | 336 | 0.16 | 838 | 0.30 | 
4 | B4 | 4655 | 1.62 | superior stability | 0.61 ± 0.17 | 0.70 ± 0.07 | 0.75 ± 0.00 | 0.61 ± 0.07 | 1.13 ± 0.19 | 0.46 ± 0.08 | 2873 | 0.80 | 2255 | 1.07 | 3306 | 1.19 | able to well bind
